Laboratory results reported in patent publication US20210085770A1 (KORANEX CAPITAL, published 2021).

Biological target: T1, recombinant SARS-CoV-2 S1 protein expressed from insect (Sf9) cells (S1-His, SinoBiological, Cat. No. … (SARS-CoV-2, UniProt P0DTC2 16-685, glycosylated by insect cells))
T1 construct: also called 51-His (as misprinted)
Assay: ELISA, coated insect-cell S1-His, HRP-conjugated lectin 10 ug/mL

B1: Vicia villosa lectin (VVA) (other)
chain: SESTSFSFTNFNPNQENLILQEDALVNSKGTLELTKNGKPVPESLGRNCTTLASFTTSFSFVMSAPNSLDVADGLAFFLAPPDTQPQKRGGFLGLFKDRKHDISYQSVAVEFDTYSNVWDPNTTHIGIDTNTIESKKITPFDMVYGEKILFASLVFPVSQDILPEYVRVGFSATTGLNEGVVETH
mean fold increase of OD450: 22.5 fold

B2: Maackia amurensis lectin (MAA) (other)
chain: SDELSFTINNFVPNEADLLFQGEASVSSTGVLQLTRVENGQPQKYSVGRALYAAPVRIWDNTTGSVASFSTSFTFVVKAPNPDITSDGLAFYLAPPDSQIPSGSVSKYLGLFNNSNSDSSNQIVAVELDTYFAHSYDPWDPNYRHIGIDVNGIESIKTVQWDWINGGVAFATITYLAPNKTLIASLVYPSNQTTFSVAASVDLKEILPEWVRVGFSAATGYPTEVETHDVLSWSFTSTLEANCDAATEN
mean fold increase of OD450: 4.3 fold
